We go through 95 sequences from the Immune Epitope Database (IEDB).

Bounds are passed on as bounds.

Assay [1] has as its target HLA-B*08:01. As to the kind of experiment: IEDB peptide-MHC binding, purified MHC/competitive/radioactivity; filed as Kd, often an IC50 or EC50 that approximates it; ≥ and ≤ were set here for values at or beyond the usual limits of such assays.
Assay [2] concerns the target HLA-A*30:01. The description is as above.
The target of assay [3] is HLA-A*26:01. Described as above.
Assay [4] concerns the target HLA-A*24:02. The assay is described as above.
For assay [5], the target named is HLA-A*23:01. The description is as above.
Assay [6] addresses HLA-B*40:01. The assay is described as above.
Assay [7] deals with HLA-B*07:02. Described as above.
Assay [8] deals with HLA-A*02:01. As to the kind of experiment: IEDB peptide-MHC binding, purified MHC/direct/fluorescence; filed as Kd, often an IC50 or EC50 that approximates it; ≥ and ≤ were set here for values at or beyond the usual limits of such assays. As to conditions: source organism: Rickettsia prowazekii.
For assay [9], the target named is HLA-B*15:01. The description is as above. To be noted: source organism: Rickettsia prowazekii.
Assay [10] has as its target HLA-A*11:01. The description is as above. As to conditions: source organism: Rickettsia prowazekii.
Assay [11] addresses HLA-B*58:01. The description is as above. To be noted: source organism: Rickettsia prowazekii.
Assay [12] deals with HLA-A*69:01. Described as above. To be noted: source organism: Rickettsia prowazekii.
The target of assay [13] is HLA-A*03:01. The assay is described as above. To be noted: source organism: Rickettsia prowazekii.
In assay [14] the target is HLA-B*40:01. Described as above. To be noted: source organism: Rickettsia prowazekii.
Assay [15] has as its target HLA-A*31:01. The description is as above. To be noted: source organism: Rickettsia prowazekii.
The target of assay [16] is HLA-A*01:01. As to the kind of experiment: IEDB peptide-MHC binding, purified MHC/competitive/radioactivity; filed as Kd, often an IC50 or EC50 that approximates it; ≥ and ≤ were set here for values at or beyond the usual limits of such assays.
Assay [17] has as its target HLA-A*02:06. The assay is described as above.
The target in assay [18] is HLA-A*03:01. Described as above. As to conditions: source organism: Dengue virus 2 Peru/IQT2913/1996.
Assay [19] deals with HLA-B*53:01. Described as above.
The target in assay [20] is HLA-A*32:01. Described as above. To be noted: source organism: Dengue virus 3 Martinique/1243/1999.
The target in assay [21] is HLA-A*02:03. The assay is described as above. To be noted: source organism: Vaccinia virus WR.
Assay [22] addresses HLA-A*02:02. Described as above. To be noted: source organism: Vaccinia virus WR.
The target in assay [23] is HLA-B*46:01. As to the kind of experiment: IEDB peptide-MHC binding, purified MHC/direct/fluorescence; filed as Kd, often an IC50 or EC50 that approximates it; ≥ and ≤ were set here for values at or beyond the usual limits of such assays. As to conditions: source organism: West Nile virus.
The target in assay [24] is HLA-A*26:01. The assay is described as above.
[25] abbreviates: source organism: Dengue virus 1 Brazil/97-11/1997.
[26] abbreviates: source organism: Vaccinia virus WR.
Where [27] appears, read: source organism: Dengue virus 4 Philippines/H241/1956.
[28] abbreviates: source organism: Dengue virus 3 Martinique/1243/1999.
Setting [29] is: source organism: Dengue virus 2 Jamaica/1409/1983.
Where [30] appears, read: source organism: Dengue virus 4 Dominica/814669/1981.
Setting [31] is: source organism: Dengue virus 2 Peru/IQT2913/1996.

As to KKKQRSGVL, the Kd – broadly, the constant that tells how readily two partners part at equilibrium – in assay [1] (setting [25]) was 2290 nM. With HTSARLHSL, in assay [2] (setting [26]), the Kd was 4.14 nM.

As for ETAWDFGSVG, the Kd in assay [3] (setting [27]) was determined as 138 nM. Take IILWFFNAM: the Kd in assay [1] (setting [26]) was found to be 5230 nM. Regarding WYMWLGARYL, the Kd in assay [4] (setting [28]) stood at 17.8 nM; in assay [5] (setting [28]), 18.2 nM. As for IMRMRFKKG, the Kd in assay [1] (setting [26]) worked out at 62.4 nM. LEFEALGFMN: in assay [6] (setting [25]), the Kd was 2660 nM. With SPLLLTSSQQ, the Kd in assay [7] (setting [29]) is 1220 nM. As to VFGAIYGAAF, the Kd was 323 nM in assay [4] (setting [29]) and 4.48 nM in assay [5] (setting [29]).

With KIFEYGFTF, the Kd in [8] is 106 nM; in [9] it was 229 nM; in assay [10] it was 377 nM; in [11], 255 nM; in [12], 4280 nM; in assay [13], 6020 nM. The Kd was 4350 nM in assay [14] and 196 nM in assay [15]. With PTEQVDTLL, the Kd in assay [16] (setting [27]) stood at 14800 nM.

In the case of GRTLRVLKMV, the Kd in [2] (setting [25]) came to 634 nM. As to NYILWENNI, the Kd in [4] (setting [28]) came to 2.85 nM; in assay [5] (setting [28]), 6.03 nM. With YTQMCDHRL, the Kd in [16] (setting [25]) was determined as 5710 nM.

On to TKKVRTNAA, for which, in assay [1] (setting [28]), the Kd came out at 43.6 nM. For the sequence ELCEDTMTY, in [3] (setting [25]), the Kd turned out to be 1740 nM. Turning to GYFTQTAGPW, the Kd in [4] (setting [25]) is ≥ 70300 nM; in assay [5] (setting [25]), 1220 nM. For the sequence FLGEDGCWY, in assay [16] (setting [27]), the Kd came to 277 nM. For the sequence MTDKTPVHS, the Kd in assay [16] (setting [27]) was determined as 6570 nM.

TEHGTIATI: the dissociation constant (Kd) in assay [6] (setting [25]) came to 80 nM. Consider RQWFFDLPLP, for which the Kd in [2] (setting [28]) came to 10800 nM. For the sequence EKEENMVKSL, the Kd in assay [1] (setting [28]) came out at 10600 nM. In the case of SPILSITISE, in [7] (setting [29]), the Kd amounted to 2150 nM. As to KVRPTFAAG, the dissociation constant (Kd) in [2] (setting [29]) worked out at 4.4 nM.

Regarding AGRLVRPFL, in assay [2] (setting [26]), the equilibrium dissociation constant (Kd) turned out to be 252 nM. Take MLLNRFTMA: the Kd was 10.2 nM in assay [1] (setting [25]) and 5.12 nM in [17] (setting [25]).

Take HLAIMAVFKM: the Kd in assay [3] (setting [27]) came out at 9580 nM. LSTRDGEPLM: the Kd in assay [2] (setting [27]) was 1630 nM.

On to RPTPKGAVMD, for which the Kd in [7] (setting [27]) was 100 nM. Consider KGRISYYEM, for which, in assay [2] (setting [26]), the Kd came to 14.4 nM.

With LQLKGMSYSM, the dissociation constant (Kd) in [1] (setting [29]) amounted to 70 nM. MLIPKSYAG: the Kd in [1] (setting [30]) was 114 nM. Turning to RVLLLTPEV, the Kd in assay [2] (setting [26]) worked out at 48.6 nM. On to YPFFRKLVL, for which the Kd in [1] (setting [26]) amounted to 5.86 nM.

For the sequence HMIVSRQEK, the Kd in [18] stood at 21.2 nM; in assay [2] (setting [31]) it was 17.6 nM. Consider LAVVSVSPLL, for which the Kd in [2] (setting [31]) is 11900 nM. In the case of PRRCMKPVIL, in assay [1] (setting [29]), the Kd amounted to 2470 nM. Consider DEAHFTDPSS, for which the dissociation constant (Kd) in assay [2] (setting [27]) is 165 nM. Regarding EPPFGDSYII, in assay [19] (setting [29]), the Kd stood at 363 nM. RQWFLDLPLP: the Kd in assay [2] (setting [29]) was 11600 nM. On to GPMPVTVASA, for which the Kd in [7] (setting [25]) amounted to 53.3 nM. VESWEEVPYL: in assay [6] (setting [29]), the Kd worked out at 41 nM.

For PWLKNNQFCI, the Kd in assay [4] (setting [28]) worked out at 224 nM; in [5] (setting [28]), 102 nM. As for GVIITWIGM, the Kd in [3] (setting [29]) came to 15700 nM. For LEKRHVLGRL, the Kd in assay [1] (setting [29]) was 7040 nM. As to KISISYIKL, the dissociation constant Kd in assay [2] (setting [26]) turned out to be 292 nM. IPLQWIASA: in assay [7] (setting [28]), the Kd is 88.4 nM. As to PYMPSVVETL, the Kd in assay [4] (setting [25]) was determined as 31.9 nM; in [5] (setting [25]) it was 32.2 nM. Turning to STRVEMGEA, in assay [2] (setting [29]), the Kd stood at 13.9 nM. As for KREDLWCGSL, the Kd in [1] (setting [27]) amounted to 4730 nM. Consider KIKSPIYYK, for which, in assay [2] (source organism: Vaccinia virus Copenhagen), the Kd was 0.932 nM. RLKSAVCYK: the Kd in assay [2] (setting [26]) worked out at 0.175 nM.

IMAVLFVVTL: the Kd in assay [1] (setting [27]) was found to be 5420 nM. In the case of RQWFFDLPL, the Kd in [6] (setting [28]) amounted to 42 nM; in assay [20] it was 1.17 nM. As for MWKQITPEL, in [5] (setting [29]), the Kd amounted to 170 nM.

For GAKIGCINV, the Kd in [2] (setting [26]) is 9.11 nM. For HSRASPRIG, the Kd in assay [2] (setting [26]) stood at 0.931 nM.

For LARWGSFKK, the Kd in assay [2] (source organism: Dengue virus 1 Singapore/S275/1990) came out at 24.4 nM. Take RPLKEKEENL: the Kd in assay [1] (setting [29]) turned out to be 1820 nM. As for LLLMRTSWA, in assay [1] (setting [28]), the Kd turned out to be 10.3 nM. For the sequence NPLTLTAAVL, the Kd in [1] (setting [25]) turned out to be 305 nM. As to KEENLVRSM, the dissociation constant Kd in assay [6] (setting [25]) came out at 1130 nM. Take DARTYSDPLA: the Kd in [2] (setting [25]) came to 924 nM. GLFPVSIPIT: the Kd in assay [2] (setting [31]) is 15900 nM. Take EALYYVHSL: the Kd in assay [1] (setting [26]) was 2.11 nM; in assay [21] it was 5770 nM; in assay [17] (setting [26]), 14800 nM; in [22], 14200 nM. As to HLIIQYPSV, in assay [2] (setting [26]), the Kd is 164 nM. Consider LLLLVAPAY, for which, in assay [23], the Kd was ≥ 20000 nM. Turning to DQLSKFRTL, in [1] (setting [26]), the dissociation constant Kd came out at 7.4 nM. In the case of KTLAPFNFL, in assay [2] (setting [26]), the Kd was 15 nM. Take LEHGGCVTTM: the Kd in [6] (setting [28]) was 9.41 nM. Take MTTEDMLAVW: the Kd in assay [19] (setting [29]) is 354 nM. FVEGVSGGSW: the Kd in assay [19] (setting [29]) stood at 48.8 nM; in assay [3] (setting [29]), 14200 nM. As for RPRWLDARV, the Kd in assay [7] (setting [30]) is 1.7 nM.

Consider GRLITANPVV, for which the Kd in assay [2] (setting [28]) amounted to 1430 nM. Consider STVQQLTKRF, for which the Kd in [3] (setting [29]) is 6790 nM. RARYKKMLK: in [2] (setting [26]), the Kd came to 1.04 nM.

As to FFINFFNLL, the Kd in assay [1] (setting [26]) was 149 nM. GEGVLSKADL: the dissociation constant Kd in assay [6] (setting [28]) was determined as 42.4 nM. On to TEDDLQNEEL, for which, in assay [6] (setting [30]), the Kd came out at 136 nM. Regarding RTKFQNRAK, in [2] (setting [26]), the Kd came out at 0.159 nM.

LTMKNKAWM: the Kd in [3] (setting [28]) is ≥ 45300 nM. Regarding FGIFTTNIW, in [19] (setting [25]), the dissociation constant (Kd) was found to be 168 nM. For ETFKVIGGW, the dissociation constant (Kd) in assay [24] (source organism: Influenza A virus (A/swine/Italy/1654-1/99(H1N2))) came to 182 nM. For APHVGLGLET, the equilibrium dissociation constant (Kd) in [7] (setting [25]) amounted to 1160 nM. GLRNSLLVA: in assay [2] (setting [26]), the Kd came out at 93.5 nM. EKWKRQLNSL: the dissociation constant (Kd) in [1] (setting [27]) amounted to 251 nM. Consider LGRNKKPRL, for which the Kd in assay [1] (setting [28]) worked out at 265 nM. As for RLKMDKLTL, the Kd in assay [1] (setting [25]) stood at 268 nM. The sequence EVAGAGSGF gave a Kd in assay [24] (source organism: Mycobacterium tuberculosis variant bovis) of 1.4 nM. Consider LGLNSRSTSL, for which the Kd in assay [1] (setting [25]) was 39.9 nM.

Consider VVRPPFNML, for which the Kd in assay [7] (setting [27]) was 20.5 nM. With KWKNRLNAL, the Kd in assay [1] (setting [31]) amounted to 157 nM. In the case of SPTSYLDVDL, the Kd in assay [7] (setting [28]) worked out at 1640 nM. Consider IGESSSNPTI, for which, in [2] (setting [27]), the Kd was found to be 7340 nM.

On to AYRIKQRGIL, for which the Kd in [1] (setting [29]) came out at 659 nM.
